Data set [1] has as its system T1, hCdc45-His6 (Homo sapiens).
T1 sequence: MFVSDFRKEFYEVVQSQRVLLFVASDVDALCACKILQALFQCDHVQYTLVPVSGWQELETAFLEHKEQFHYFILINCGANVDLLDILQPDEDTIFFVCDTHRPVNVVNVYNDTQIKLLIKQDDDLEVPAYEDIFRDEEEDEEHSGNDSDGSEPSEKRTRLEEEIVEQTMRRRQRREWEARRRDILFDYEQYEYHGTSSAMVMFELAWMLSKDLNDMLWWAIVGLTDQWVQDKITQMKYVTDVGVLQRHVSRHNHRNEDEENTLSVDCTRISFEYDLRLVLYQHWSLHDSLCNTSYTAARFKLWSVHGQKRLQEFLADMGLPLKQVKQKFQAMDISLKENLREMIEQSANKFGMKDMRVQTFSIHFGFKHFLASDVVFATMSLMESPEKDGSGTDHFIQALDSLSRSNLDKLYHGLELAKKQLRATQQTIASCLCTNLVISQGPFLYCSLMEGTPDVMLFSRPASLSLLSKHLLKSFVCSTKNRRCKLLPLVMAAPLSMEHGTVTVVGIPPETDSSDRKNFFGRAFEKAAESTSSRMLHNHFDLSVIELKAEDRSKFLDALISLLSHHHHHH
Kind of data set: SPR. Conditions: 3 mM EDTA, EMSA: 50 mM HEPES-KOH pH 7.5, 150 mM KCl, 0.5 mM DTT, 50 ug/ml BSA, 30 C 10 min, SPR: 20 mM HEPES-KOH pH 7.5, 150 mM KCl, 1 mM DTT, 0.005% P20 …; for pKd: Cdc45 immobilized by anti-His; for binding signal: scale: fold weaker than Y/bubble. Background: Mobility shift assays separate free from complexed probe on a gel.

Data set [2] deals with T1, hCdc45-His6 (Homo sapiens). Kind of data set: EMSA. Conditions: EMSA: 50 mM HEPES-KOH pH 7.5, 150 mM KCl, 0.5 mM DTT, 50 ug/ml BSA, 30 C 10 min, SPR: 20 mM HEPES-KOH pH 7.5, 150 mM KCl, 1 mM DTT, 3 mM EDTA, 0.005% P20 ….

pKd: −log10 of the molar value. Bounds are passed on as bounds.

By pKd is commonly meant −log10 of the Kd, conventionally taken in molar units. Substance “bubble M5M6 (22 bp, 20 nt bubble, 22 bp)” gave a pKd in data set [1] of 8.10.

In turn, R-loop registered a binding signal in data set [1] of over 10.

Consider 67-mer ssDNA, for which, in data set [2] (2 nM DNA), the binding signal (fold less efficient than 113-mer) is 8.5.

In data set [1], “Y-shaped DNA M3S4 (17 bp, two 17-mer overhangs)” showed a pKd of 8.11.

The substance 113-mer ssDNA returned a binding signal (% bound at 5 uM Cdc45) in data set [2] of 85.

D-loop M5M6M2 gave a binding signal in data set [1] of over 10.

The values are drawn from PMC3936751.
